# Data as given in patent US11466255B2, “Methods and compositions for converting non-endocrine pancreatic tissue into insulin-producing cells” (UNIVERSITY OF MIAMI, priority 2015, dated 2022).
# Experiments:
# [1] = reconstituted solution; cited from earlier work
# [2] = test system: stz-treated diabetic mice; assay: Systemic BMP-7 in stz-treated diabetic CD1 mice; format: in vivo, mouse; details: BMP-7 500 μg/kg IP daily for 30 days, stz 200 mg/kg
# Method: Systemic BMP-7 (500 μg/kg) is administered to CD1 mice by means of intraperitoneal (IP) injection daily for 30 days. This dose is within the range reported for rodents in other BMP administration settings^18,67-69, and is refined in subsequent preclinical experiments. Acute diabetes is induced by a single injection of stz (200 mg/kg) prior to BMP-7 treatment. Controls receive saline by the same route. […] Similar doses^18 are effective at reversing kidney fibrosis. Ten animals/group are used. Half of the animals in each group receive BrdU in the water. Mice are euthanized 30 days after initiation of treatment, or earlier if diabetes reversal is observed. Glycemia is monitored daily at the same time, right before injection. IPGTTs and determination of PI/I ratios is done at 14 and 30 days. Upon euthanasia, the pancreas and other organs are harvested and analyzed by a pathologist to establish if there are tumorigenic or otherwise toxic effects associated with the treatment. The pancreas is also studied by IF in search of potential β-cell/endocrine cell neogenesis and/or signs of β-cell/endocrine cell proliferation (BrdU-treated animals) when compared to saline-treated controls. […] Relative quantification of β-cell/endocrine cell neogenesis are done using normalized total insulin quantification and the imaging techniques described in Example 4 and^17. […]
# [3] = test system: hNEPT; assay: C-peptide content (ELISA, normalised to DNA) of hNEPT; format: cell-based, human; details: for induction of C-peptide compared to t=0: n=4, P=0.06
# Method: hNEPT culture: Human islets were isolated at the DRI's cGMP facility following methods already described54, and hNEPT samples (2-4 ml) were obtained as an isolation byproduct. The cells were washed and seeded on tissue culture-treated plates in FBS- and trypsin inhibitor-supplemented RPMI 1640 medium (Gibco-Life Technologies, Grand Island, N.Y.). After 48 h, floating cells were removed with fresh medium replacement. The following day, cultures were either treated with 100 ng/ml BMP-7 (ProSpec-Tany TechnoGene; Ness Ziona, Israel) or remained in the starting medium as controls. Cells were allowed to grow 4-5 days and then the serum-containing medium was replaced by serum-free Advanced RPMI 1640 (Gibco-Life Technologies, Grand Island, N.Y.). Four to five days later the cells were either subjected to static incubation to evaluate their ability to respond to changing glucose concentration or collected for further assessments (such as C-peptide content, immunohistochemistry or cellular composition) or transplantation.
# Glucose-stimulated insulin release (GSIR) and total insulin determination: GSIR was performed in six-well plate cultures. BMP-7-treated samples and untreated controls were washed twice with DMEM medium containing 2.5 mM glucose (Low glucose medium or L-medium). Upon addition of 2 ml of the same medium, the cells were cultured for 1 h at 37° C. to bring their insulin secretion to baseline. After 2 more washes, 1 ml of L-medium was added and the cells were returned to the incubator for 1 h. At the end of incubation period, the medium was collected and the cells exposed for 1 h to 1 ml of 20 mM glucose DMEM medium (high glucose medium or H-medium). After the collection of the H-medium supernatant, the cells were washed three times with L-medium and cultured again in low glucose conditions for 1 h. As before, supernatant was collected at the end of the incubation period. The second low glucose incubation is necessary to confirm that the cells are responding to glucose concentration changes in a physiological manner and not dumping insulin. After the last incubation, the cells were collected, washed in PBS and lysed with 1 ml of T-Per (Thermo Scientific, Rockford, Ill.). The lysates and the supernatants from GSIR test were evaluated with ELISA for C-peptide content (Mercodia, Uppsala, Sweden) following manufacturer's instructions. DNA content of the lysates was used to normalize the results (Pico-Green dsDNA Assay Kit, Life Technologies-Molecular Probes, Grand Island, N.Y.).
# [4] = test system: SMAD1/5/8 phosphorylation; assay: SMAD1/5/8 phosphorylation by immunofluorescence in hNEPT; format: cell-based, human; details: 2 h after the addition of BMP-7 to hNEPT
# Excerpt: In order to study the mechanism behind the effects of BMP-7 on hNEPT preparations, the potential receptors engaged by BMP-7 were studied. BMP-7 binds with high affinity to heteromeric complexes formed by BMPR2 (Bone Morphogenetic Receptor Type II) and the activin-like kinase (ALK) ALK3, ALK6 or ALK2 type I serine/threonine kinase receptors^25. […] These findings are consistent with numerous reports that identify ALK3 as the receptor that mediates BMP-7 function in several biological models of regeneration, including adult liver regrowth^23, differentiation of epidermal Langerhans cells^24 and kidney regeneration and fibrosis reversa1^22. The activation of the canonical BMP signaling pathway entails the phosphorylation of SMAD1/5/8 upon ALK3 engagement.
# IF analysis and confocal microscopy: The present study was conducted on human pancreatic samples from cadaveric organ donors. In addition to our own cGMP facility, the Network for Pancreatic Organ Donors with Diabetes (nPOD, www.jdrfnpod.org)55 also provided tissue sections. For IF staining, 5 μm-thick frozen sections or cultured cells were fixed with 4% paraformaldehyde (PFA) for 20 min at room temperature, rinsed with HBSS, washed (3 x 5 min each) with lx Supersensitive Wash Buffer (Biogenex HK583-5K) and then incubated in permeabilization buffer PBSTr [0.2% Triton X-100 (Sigma-Aldrich) in PBS] for 30 min at room temperature. […]
molecule,measurement,setting,value
"BMP-7: 35 kDa homodimeric protein of the TGF-β superfamily; FDA-approved agent; human mature chain SEQ ID NO:1/2 (protein, listed as Homo sapiens, homodimer; human mature chain of BMP-7 (NCBI Reference Sequence NM_001719.2) comprising peptide from 293-431) IRSTGSKQRSQNRSKTPKNQEALRMANVAENSSSDQRQACKKHELYVSFRDLGWQDWIIAPEGYAAYYCEGECAFPLNSYMNATNHAIVQTLVHFINPETVPKPCCAPTQLNAISVLYFDDSSNVILKKYRNMVVRACGCH",time reconstituted BMP-7 is active,[1],2 to 7 days
same,glycemia vs. controls,[2],glycemic improvements
same,C-peptide production induction vs. t=0,"[3]; BMP-4 vs BMP-7 comparison, n=6, P=0.43",156±32 fold
same,induction of C-peptide compared to t=0,"[3]; BMP-7 alone, dorsomorphin experiment",314.1±152 fold
same,induction of C-peptide compared to t=0,[3]; BMP-7 in the presence of dorsomorphin (DM),107.8±34.3 fold
same,C-peptide induction vs. t=0,"[3]; THR-123 vs BMP-7 comparison, n=4, P=0.25",261±102 fold
same,average increase in total C-peptide vs. the initial material,"[3]; day 12 vs day 0, 8 independent hNEPT preparations",two orders of magnitude
same,SMAD1/5/8 phosphorylation in ALK3-expressing cells,[4],presented SMAD1/5/8 phosphorylation
